The Human Domainome abundance scans (Beltran et al. 2025)
± gives the uncertainty stated by the source.

B1: Receptor-interacting serine/threonine-protein kinase 2, residues 438 to 518; numbered along this chain, O43353 (parent)
chain: QWIQSKREDIVNQMTEACLNQSLDALLSRDLIMKEDYELVSTKPTRTSKVRQLLDTTDIQGEEFAKVIVQKLKDNKQMGLQ

Variants of: B1
Assay: abundance fitness (aPCA) (normalised: wild type 0, dead -1); higher = more abundant; growth selection in yeast, the domain comes from the species named
Conditions: Homo sapiens

L39D and L39G are within error of each other in abundance fitness: -0.194 ± 0.11 for the first, -0.34 ± 0.056 for the second.

L39Y and L39H are within error of each other in abundance fitness: -0.407 ± 0.23 for the first, -0.107 ± 0.081 for the second.

Going from L39M to Q4P, the abundance fitness falls from -0.218 ± 0.23 to -0.923 ± 0.35.

Q4R and Q4A are within error of each other in abundance fitness: -0.045 ± 0.1 for the first, -0.078 ± 0.12 for the second.

Compared with D74I, D74H is higher in abundance fitness: -0.261 ± 0.069 for the first, 0.046 ± 0.096 for the second.

D74P and D74F are within error of each other in abundance fitness: -0.512 ± 0.053 for the first, -0.486 ± 0.14 for the second.

D74C and D74E are within error of each other in abundance fitness: -0.246 ± 0.13 for the first, -0.085 ± 0.15 for the second.

Going from D74A to S41R, the abundance fitness rises from -0.076 ± 0.07 to 0.046 ± 0.046.

S41A and S41L are within error of each other in abundance fitness: -0.007 ± 0.064 for the first, 0.069 ± 0.054 for the second.

S41Y and S41T are within error of each other in abundance fitness: -0.117 ± 0.11 for the first, -0.004 ± 0.079 for the second.

S41I and S41K are within error of each other in abundance fitness: 0.09 ± 0.11 for the first, 0.158 ± 0.12 for the second.

Compared with S41G, E62Y is lower in abundance fitness: -0.295 ± 0.063 for the first, -0.913 ± 0.25 for the second.

Going from E62S to R46W, the abundance fitness falls from -0.627 ± 0.055 to -0.796 ± 0.072.

First: R46I
Second: R46C
The abundance fitness of the first is higher: 0.007 ± 0.15 for the first, -0.285 ± 0.079 for the second.

R46T and R46N are within error of each other in abundance fitness: 0.02 ± 0.091 for the first, -0.288 ± 0.22 for the second.

Going from L23Q to L23R, the abundance fitness falls from -0.424 ± 0.14 to -0.695 ± 0.079.

L23E and L23H are within error of each other in abundance fitness: -0.445 ± 0.21 for the first, -0.174 ± 0.13 for the second.

Going from T15Q to T15E, the abundance fitness falls from -0.126 ± 0.14 to -0.767 ± 0.27.

T15N and N20Q are within error of each other in abundance fitness: -0.518 ± 0.093 for the first, -0.091 ± 0.42 for the second.

N20T and N20F are within error of each other in abundance fitness: -0.29 ± 0.17 for the first, 0.023 ± 0.37 for the second.

Compared with N20C, N20S is higher in abundance fitness: -0.564 ± 0.16 for the first, -0.043 ± 0.11 for the second.

N20A and L19Q are within error of each other in abundance fitness: -0.048 ± 0.21 for the first, -0.351 ± 0.14 for the second.

L19V and D24C are within error of each other in abundance fitness: -0.25 ± 0.097 for the first, -0.337 ± 0.15 for the second.

D24M and S5K are within error of each other in abundance fitness: -0.719 ± 0.33 for the first, -0.171 ± 0.27 for the second.

First: S5W
Second: S5E
The abundance fitness of the first is lower: -0.639 ± 0.46 for the first, 0.372 ± 0.27 for the second.

I10G and I10P are within error of each other in abundance fitness: -0.764 ± 0.11 for the first, -0.622 ± 0.14 for the second.

Compared with I10Y, T42M is higher in abundance fitness: -0.864 ± 0.28 for the first, 0.012 ± 0.1 for the second.

Going from T42R to T42V, the abundance fitness falls from 0.066 ± 0.061 to -0.415 ± 0.061.

First: T42Q
Second: T42P
The abundance fitness of the first is higher: 0.207 ± 0.13 for the first, -0.89 ± 0.16 for the second.

First: T42L
Second: M33R
The abundance fitness of the first is lower: -0.225 ± 0.073 for the first, 0.141 ± 0.053 for the second.

Compared with M33A, M33Y is lower in abundance fitness: 0.199 ± 0.071 for the first, -0.439 ± 0.23 for the second.

Compared with M33C, M33P is lower in abundance fitness: 0.115 ± 0.097 for the first, -0.039 ± 0.054 for the second.

Going from M33W to M33N, the abundance fitness rises from -0.646 ± 0.094 to -0.132 ± 0.36.

A17N and A17C are within error of each other in abundance fitness: -0.166 ± 0.17 for the first, -0.107 ± 0.074 for the second.

Going from A17S to A17Q, the abundance fitness rises from -0.117 ± 0.056 to 0.076 ± 0.088.

First: T47K
Second: T47Y
The abundance fitness of the first is higher: -0.031 ± 0.14 for the first, -0.57 ± 0.25 for the second.

First: T47A
Second: T47F
The abundance fitness of the first is higher: 0.121 ± 0.084 for the first, -0.493 ± 0.33 for the second.

T47Q and V67D are within error of each other in abundance fitness: -0.145 ± 0.15 for the first, -0.453 ± 0.26 for the second.

Compared with V67R, V67H is higher in abundance fitness: -0.854 ± 0.087 for the first, -0.396 ± 0.19 for the second.

Going from T56P to T56S, the abundance fitness rises from -0.612 ± 0.075 to -0.273 ± 0.058.

Going from T56H to T56D, the abundance fitness falls from -0.206 ± 0.16 to -0.849 ± 0.24.

T56Q and T56F are within error of each other in abundance fitness: -0.024 ± 0.083 for the first, 0.037 ± 0.12 for the second.

Compared with T56W, Q1L is lower in abundance fitness: 0.125 ± 0.11 for the first, -0.399 ± 0.28 for the second.

Going from Q21A to Q21R, the abundance fitness falls from 0.089 ± 0.12 to -0.286 ± 0.051.

V69W and V69L are within error of each other in abundance fitness: -0.4 ± 0.067 for the first, -0.286 ± 0.093 for the second.

First: V69S
Second: V69E
The abundance fitness of the first is lower: -0.57 ± 0.094 for the first, -0.178 ± 0.12 for the second.

V69F and V69M are within error of each other in abundance fitness: -0.057 ± 0.13 for the first, 0.003 ± 0.11 for the second.

V69G and V69K are within error of each other in abundance fitness: -0.553 ± 0.086 for the first, -0.35 ± 0.13 for the second.

L53V and L53M are within error of each other in abundance fitness: -0.56 ± 0.085 for the first, -0.517 ± 0.18 for the second.

Going from L53A to L53W, the abundance fitness falls from -0.396 ± 0.072 to -0.595 ± 0.095.

L53E and R7Y are within error of each other in abundance fitness: -0.536 ± 0.14 for the first, -0.501 ± 0.17 for the second.

First: R7F
Second: R7I
The abundance fitness of the first is higher: -0.027 ± 0.17 for the first, -0.838 ± 0.38 for the second.

Going from R7Q to F64P, the abundance fitness rises from -0.463 ± 0.13 to -0.248 ± 0.065.

F64K and F64I are within error of each other in abundance fitness: -0.566 ± 0.19 for the first, -0.269 ± 0.23 for the second.

Going from F64S to F64R, the abundance fitness falls from -0.212 ± 0.053 to -0.475 ± 0.042.

First: F64M
Second: F64A
The abundance fitness of the first is lower: -0.047 ± 0.11 for the first, 0.131 ± 0.058 for the second.

First: F64Q
Second: S48Q
The abundance fitness of the first is lower: -0.156 ± 0.12 for the first, 0.123 ± 0.099 for the second.

First: S48A
Second: S48R
The abundance fitness of the first is higher: 0.072 ± 0.06 for the first, -0.466 ± 0.065 for the second.

First: S48E
Second: K73S
The abundance fitness of the first is higher: 0.542 ± 0.19 for the first, 0.001 ± 0.061 for the second.

Compared with K73Q, K73D is lower in abundance fitness: -0.003 ± 0.076 for the first, -0.269 ± 0.13 for the second.

K73G and K73N are within error of each other in abundance fitness: -0.132 ± 0.056 for the first, -0.191 ± 0.22 for the second.

W2I and W2D are within error of each other in abundance fitness: 0.069 ± 0.43 for the first, -0.232 ± 0.31 for the second.

W2L and W2T are within error of each other in abundance fitness: -0.45 ± 0.074 for the first, -0.609 ± 0.24 for the second.

Compared with W2H, W2N is higher in abundance fitness: -0.684 ± 0.24 for the first, -0.196 ± 0.2 for the second.

N12W and V11N are within error of each other in abundance fitness: -0.829 ± 0.19 for the first, -0.577 ± 0.27 for the second.

Compared with V11M, V11R is lower in abundance fitness: -0.099 ± 0.15 for the first, -0.534 ± 0.081 for the second.

First: R51P
Second: R51W
The abundance fitness of the first is higher: -0.501 ± 0.064 for the first, -0.802 ± 0.17 for the second.

R51K and R51E are within error of each other in abundance fitness: -0.071 ± 0.18 for the first, -0.273 ± 0.12 for the second.

First: R51V
Second: V40R
The abundance fitness of the first is higher: -0.273 ± 0.072 for the first, -0.836 ± 0.082 for the second.

First: V40A
Second: V40W
The abundance fitness of the first is higher: -0.528 ± 0.085 for the first, -1.04 ± 0.23 for the second.

V40G and V40L are within error of each other in abundance fitness: -0.715 ± 0.081 for the first, -0.701 ± 0.1 for the second.

V40Y and A25L are within error of each other in abundance fitness: -0.438 ± 0.48 for the first, -0.303 ± 0.063 for the second.

A25W and A25P are within error of each other in abundance fitness: -0.969 ± 0.17 for the first, -0.737 ± 0.082 for the second.

First: A25G
Second: A25D
The abundance fitness of the first is lower: -0.451 ± 0.067 for the first, -0.088 ± 0.1 for the second.

First: A25N
Second: A25F
The abundance fitness of the first is lower: -0.343 ± 0.062 for the first, -0.052 ± 0.16 for the second.

E63L and E63Q are within error of each other in abundance fitness: -0.684 ± 0.087 for the first, -0.485 ± 0.28 for the second.

P44C and P44K are within error of each other in abundance fitness: -0.491 ± 0.15 for the first, -0.298 ± 0.16 for the second.

P44S and P44T are within error of each other in abundance fitness: -0.304 ± 0.075 for the first, -0.283 ± 0.1 for the second.

P44L and E35P are within error of each other in abundance fitness: -0.263 ± 0.067 for the first, -0.304 ± 0.096 for the second.

Going from E35K to E35W, the abundance fitness falls from 0.024 ± 0.089 to -0.252 ± 0.12.

First: E35M
Second: E35D
The abundance fitness of the first is lower: -0.703 ± 0.11 for the first, -0.142 ± 0.14 for the second.

Going from E35I to E35G, the abundance fitness rises from -1.12 ± 0.47 to -0.256 ± 0.07.

Compared with D55M, D55H is lower in abundance fitness: -0.03 ± 0.14 for the first, -0.665 ± 0.16 for the second.

Variant D55W has an abundance fitness of -0.475 ± 0.064.
